Values of other authors in paper PMC12874384.

Key:
Glu165 [1] = test: kinetics (competitive inhibition, pH dependence of Ki); conditions: enzyme•PGA trianion complex (closed, inhibitor-bound)
Glu165 [2] = target: Glu165 (UniProt position 165, VVVAYEPVWAI); test: as above; conditions: enzyme•PGA trianion complex (closed, inhibitor-bound)
Glu165 [3] = target: Glu165 (UniProt position 165, VVLAYEPVWAI); test: as above; conditions: enzyme•PGA trianion complex (closed, inhibitor-bound)
Lys204 [4] = target: T1, Lys204 (UniProt position 204, ICGALKNVVAV); test: kinetics (pH-rate profile); conditions: kcat/Km profile for reaction of DHAP dianion in the presence of NADH
Asp260 = Asp260 (UniProt position 260, SCGVADLITTC); test: kinetics (pH-rate profile); conditions: kcat/Km profile for reaction of DHAP dianion in the presence of NADH
Lys204 [5] = target: T1, Lys204; test: kinetics (pH-rate profile of chemical rescue); conditions: K120A variant with EtNH3+ activator, DHAP and NADH

## TbbTIM P166A/I170A double variant (P168A/I172A in TbbTIM numbering) (Trypanosoma brucei brucei; P166A;I170A)
Glu165 [1]
  pKa: 7.8

## yTIM S211A variant (Saccharomyces cerevisiae; S211A)
Glu165 [2]
  pKa: 8.2

## yTIM Y208F variant (Saccharomyces cerevisiae; Y208F)
Glu165 [2]
  pKa: 6.3

## cTIM loop 7 replacement variant (L7RM, 208-TGAG-211) (Gallus gallus; Y208T;G210A;S211G)
Glu165 [3]
  pKa: 6.7

## TbbTIM P166A variant (P168A in TbbTIM numbering) (Trypanosoma brucei brucei; P166A)
Glu165 [1]
  pKa: 9.3

## Triosephosphate isomerase, yeast (yTIM) (Saccharomyces cerevisiae)
Glu165 [2]
  pKa: ≈ 11

## Triosephosphate isomerase, Trypanosoma brucei brucei (TbbTIM) (Trypanosoma brucei brucei)
Glu165 [1]
  pKa: ≈ 11

## Triosephosphate isomerase, chicken (cTIM) (Gallus gallus)
Glu165 [3]
  pKa: ≈ 11

## TbbTIM I170A variant (I172A in TbbTIM numbering) (Trypanosoma brucei brucei; I170A)
Glu165 [1]
  pKa: 7.7

## hlGPDH K120A variant (Homo sapiens; K120A)
Lys204 [4]
  pKa: 7.6
Asp260
  pKa: 5.0
Lys204 [5]
  pKa: 7.7

## Glycerol 3-phosphate dehydrogenase [NAD+], human liver (hlGPDH) (Homo sapiens)
Lys204 [4]
  pKa: 7.6
Asp260
  pKa: 4.4
